Experiments:
[1] = molecular target: N36 peptide of HIV-1 gp41 (HIV-1); test: circular dichroism at 222 nm, thermal melt
[2] = molecular target: N36 peptide of HIV-1 gp41 (HIV-1); test: circular dichroism at 222 nm, thermal melt, 10 µM of each peptide, PBS pH 7.0
[3] = molecular target: T1, HIV-1 HXB2 envelope glycoprotein (gp41 subunit, N-helix coiled-coil) (HIV-1 (HXB2), UniProt P04578 512-856); test: cell-based or functional assay
[4] = molecular target: T1, HIV-1 HXB2 envelope glycoprotein (gp41 …); test: cell-based or functional assay; remark: listed apart in the source

## C34 Trp^631→Gly (peptide)
[1]
  Tm (apparent melting temperature of the N36/C34 complex): 35 °C

## C34 Trp^631→Val (peptide)
[1]
  Tm (apparent melting temperature of the N36/C34 complex): 43 °C

## C34 Trp^628→Ala (peptide)
[2]
  Tm (apparent melting temperature of the N36/C34 complex): 53 °C

## C34 Arg^633→Ala (peptide)
[2]
  Tm (apparent melting temperature of the N36/C34 complex): 65 °C

## C34 Trp^631→Phe (peptide)
[1]
  Tm (apparent melting temperature of the N36/C34 complex): 59 °C

## C34 Trp^631→Nal (peptide)
[1]
  Tm (apparent melting temperature of the N36/C34 complex): 62 °C

## C34 Met^629→Ala (peptide)
[2]
  Tm (apparent melting temperature of the N36/C34 complex): 66 °C

## C34 Ile^635→Ala (peptide)
[2]
  Tm (apparent melting temperature of the N36/C34 complex): 55 °C

## C34 Trp^631→Ala (peptide)
[2]
  Tm (apparent melting temperature of the N36/C34 complex): 37 °C

## C34 peptide of HIV-1 gp41, wildtype
[2]
  Tm (apparent melting temperature of the N36/C34 complex): 66 °C

## C34 Trp^631→Abu (peptide)
[1]
  Tm (apparent melting temperature of the N36/C34 complex): 43 °C

## C34 Trp^631→Leu (peptide)
[1]
  Tm (apparent melting temperature of the N36/C34 complex): 50 °C

## Ac-WMEGDREINNYTSLIHSLIEESQNQQEKNEQELL-NH2 [C34 Trp^631→Gly]
[3]
  IC50 (nanomolar) cell fusion: 25 nM
  IC50 (nanomolar) virus entry: 38 nM

## Ac-WMEVDREINNYTSLIHSLIEESQNQQEKNEQELL-NH2 [C34 Trp^631→Val]
[3]
  IC50 (nanomolar) cell fusion: 4.5 nM
  IC50 (nanomolar) virus entry: 13 nM

## Ac-WMEFDREINNYTSLIHSLIEESQNQQEKNEQELL-NH2 [C34 Trp^631→Phe]
[3]
  IC50 (nanomolar) cell fusion: 1.6 nM
  IC50 (nanomolar) virus entry: 3.6 nM

## Ac-WMEWDREANNYTSLIHSLIEESQNQQEKNEQELL-NH2 [C34 Ile^635→Ala]
[4]
  IC50 (nM) cell fusion: 0.96 nM
  IC50 (nM) viral entry: 4.1 nM
[3]
  decrease in inhibitory activity against wildtype C34: ~2 fold

## Ac-WMEADREINNYTSLIHSLIEESQNQQEKNEQELL-NH2 [C34 Trp^631→Ala]
[3]
  decrease in inhibitory activity against wildtype C34: ~30 fold

## Ac-WMEWDAEINNYTSLIHSLIEESQNQQEKNEQELL-NH2 [C34 Arg^633→Ala]
[4]
  IC50 (nM) cell fusion: 0.76 nM
  IC50 (nM) viral entry: 2.6 nM

## Ac-WMELDREINNYTSLIHSLIEESQNQQEKNEQELL-NH2 [C34 Trp^631→Leu]
[3]
  IC50 (nanomolar) cell fusion: 3.2 nM
  IC50 (nanomolar) virus entry: 5.3 nM

Source: EP1100818B1 (WHITEHEAD INSTITUTE FOR BIOMEDICAL RESEARCH, dated 2013)
